Assay results published in IntAct's records for PubMed 11739401.

B1: Ras-related protein Rab-2A (Homo sapiens), P61019 (parent)
chain: MAYAYLFKYIIIGDTGVGKSCLLLQFTDKRFQPVHDLTIGVEFGARMITIDGKQIKLQIWDTAGQESFRSITRSYYRGAAGALLVYDITRRDTFNHLTTWLEDARQHSNSNMVIMLIGNKSDLESRREVKKEEGEAFAREHGLIFMETSAKTASNVEEAFINTAKEIYEKIQEGVFDINNEANGIKIGPQHAATNATHAGNQGGQQAGGGCC
partner: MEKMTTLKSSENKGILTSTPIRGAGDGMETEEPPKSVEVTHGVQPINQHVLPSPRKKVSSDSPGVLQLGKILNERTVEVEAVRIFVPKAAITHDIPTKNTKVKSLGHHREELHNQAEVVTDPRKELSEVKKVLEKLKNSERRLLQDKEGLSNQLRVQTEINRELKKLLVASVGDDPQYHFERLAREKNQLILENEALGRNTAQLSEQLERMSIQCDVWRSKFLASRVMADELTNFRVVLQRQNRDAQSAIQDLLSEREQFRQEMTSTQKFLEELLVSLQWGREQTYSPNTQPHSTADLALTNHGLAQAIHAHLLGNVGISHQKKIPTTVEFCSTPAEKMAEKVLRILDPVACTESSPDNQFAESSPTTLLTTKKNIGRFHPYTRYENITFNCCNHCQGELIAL

Variants of: B1
Settings: with go45_mouse Blzf1, Q8R2X8

Row | effect of a mutation on the interaction | Variant
1 | increasing interaction | Q65L
